Test results reported in paper PMC11707698, “Structure of an ex vivoDrosophila TOM complex determined by single-particle cryoEM” (IUCrJ, 2025).

Molecular target: the molecule itself
Assay: cryo-EM structure; single-particle cryoEM of the TOM core complex assembled in the fly retina, FLAG-purified as a whole and reconstituted into non-ionic amphipol; graphene-coated grids; C2 symmetry; 3.3 Å

B1: Drosophila Tom40 subunit fused to a C-terminal FLAG-HA epitope tag (natural protein, D. melanogaster)
chain: AALENPGTVEELHKKCKDIQAITFEGAKIMLNKGLSNHFQVSHTINMSNVVPSGYRFGATYVGTKEFSPTEAFPVLLGDIDPAGNLNANVIHQFSARLRCKFASQIQESKVVASQLTTDYRGSDYTLSLTVANPSIFTNSGVVVGQYLQSVTPALALGSELAYQFGPNVPGRQIAIMSVVGRYTAGSSVWSGTLGQSGLHVCYYQKASDQLQIGAEVETSLRMQESVATLAYQIDLPKANLVFRGGIDSNWQIFGVLEKRLAPLPFTLALSGRMNHVKNNFRLGCGLMIG
notes: Tom40, translocation pore of the TOM complex, Drosophila melanogaster; transgene UAS-Tom40-FLAG.HA (Bloomington stock); residues 55-344 are modelled in the structure; two copies stand in the two-pore core complex; also called Tom40-FLAG-HA; Tom40_FLAG-HA; source: transgenic D. melanogaster retina (GMR-GAL4, UAS-Tom40-FLAG-HA, co-expressed with Myc); solubilised fly head membranes, purified on …
stoichiometry N: 2
